How the values were obtained:
Test in all cases: purified protein
[1] = test system: C[S+](C)[O-]; conditions: 0.2 mM benzyl viologen, 0.3 mM dithionite, 20 mM sodium phosphate pH 6.8, 37°C
[2] = test system: C[N+](C)(C)[O-]; conditions: 0.2 mM benzyl viologen, 0.3 mM dithionite, 20 mM sodium phosphate pH 6.8, 37°C
[3] = test system: O=C(O)CCCC[C@H]1[C@H]2NC(=O)N[C@H]2C[S@+]1[O-]; conditions: 0.2 mM benzyl viologen, 0.3 mM dithionite, 20 mM sodium phosphate pH 6.8, 37°C
[4] = test system: C[S+]([O-])CCC(N)C(=O)O; conditions: 0.2 mM benzyl viologen, 0.3 mM dithionite, 20 mM sodium phosphate pH 6.8, 37°C, concentration of the whole racemic mixture

HI rTorZ (TorZ/MtsZ) (Haemophilus influenzae Rd KW20)
Km [1]: 140 ± 50 µM
kcat [1]: 85.4 ± 9.1 s⁻¹
kcat/Km [1]: 650000 M⁻¹ s⁻¹
Km [2]: 6700 ± 2000 µM
kcat [2]: 435 ± 52.1 s⁻¹
kcat/Km [2]: 64900 M⁻¹ s⁻¹
Km [3]: 1520 ± 280 µM
kcat [3]: 183 ± 10.9 s⁻¹
kcat/Km [3]: 120000 M⁻¹ s⁻¹
Km [4]: 410 ± 80 µM
kcat [4]: 91.7 ± 4.4 s⁻¹
kcat/Km [4]: 224000 M⁻¹ s⁻¹

— paper PMC5122715, “A Novel, Molybdenum-Containing Methionine Sulfoxide Reductase Supports Survival of Haemophilus influenzae in an In vivo Model of Infection” (Frontiers in Microbiology, 2016)
